Reference: patent US20020031818A1 (published 2002)

Target: GST-Mdm2, wild type, bacterially expressed and purified (pGEX-4T-1) (human, UniProt Q00987 1-491)
Assay: cell-based or functional assay

Sequence of GST-Mdm2, wild type, bacterially expressed and purified (pGEX-4T-1) (Q00987 whole entry): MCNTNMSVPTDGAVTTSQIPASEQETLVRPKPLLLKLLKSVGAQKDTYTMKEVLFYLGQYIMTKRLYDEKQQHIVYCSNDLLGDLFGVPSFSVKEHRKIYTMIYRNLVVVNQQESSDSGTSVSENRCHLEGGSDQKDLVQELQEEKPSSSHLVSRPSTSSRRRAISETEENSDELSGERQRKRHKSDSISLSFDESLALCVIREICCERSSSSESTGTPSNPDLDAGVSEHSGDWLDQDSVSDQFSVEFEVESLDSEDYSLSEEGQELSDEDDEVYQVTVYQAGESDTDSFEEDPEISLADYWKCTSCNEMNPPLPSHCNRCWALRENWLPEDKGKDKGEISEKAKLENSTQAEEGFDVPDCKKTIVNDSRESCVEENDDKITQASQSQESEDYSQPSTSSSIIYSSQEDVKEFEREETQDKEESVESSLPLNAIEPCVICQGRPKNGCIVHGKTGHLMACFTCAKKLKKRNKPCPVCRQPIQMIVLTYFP

molar ratio required for inhibition of Mdm2 sumoylation: ~1 molar ratio p19^ARF:Mdm2
B1: p19^ARF, wild type (other, UniProt Q64364 1-169, looked up)
chain: MGRRFLVTVRIQRAGRPLQERVFLVKFVRSRRPRTASCALAFVNMLLRLERILRRGPHRNPGPGDDDGQRSRSSSSAQLRCRFELRGPHYLLPPGARRSAGRLPGHAGGAARVRGSAGCARCLGSPAARLGPRAGTSRHRAIFAFRWVLFVFRWVVFVYRWERRPDRRA
